Reference: the supplement of paper PMC5998384

Columns and labels:
[1] = system: HeLa Kyoto; experiment: thermal stability score vs G1/S (z-score of summed log2 fold changes over temperatures); higher = more thermally stable than in G1/S
[2] = system: HeLa Kyoto; experiment: solubility in G1/S (NP-40 vs SDS abundance) (log2 ratio); higher = more soluble; details: cell cycle stage: G1/S
[3] = system: HeLa Kyoto; experiment: solubility change mitosis vs G1/S (difference of NP-40 vs SDS log2 ratios) (log2 ratio difference); higher = more soluble in mitosis
[4] = system: HeLa Kyoto; experiment: melting temperature (median over replicates), in situ; higher = more thermally stable
[5] = cell cycle stage: early G1 (4.5 h after nocodazole release)
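For melting temperature (median over replicates), in situ in this document: HeLa Kyoto cells synchronized by double thymidine or nocodazole block, proteins quantified by TMT10plex mass spectrometry, three independent biological replicates.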
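For solubility change mitosis vs G1/S (difference of NP-40 vs SDS log2 ratios) in this document: synchronized HeLa Kyoto cells (double thymidine block for G1/S, nocodazole release for mitosis), protein amounts in NP-40 versus SDS lysates quantified by mass spectrometry, three biological replicates.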
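For solubility in G1/S (NP-40 vs SDS abundance) in this document: HeLa Kyoto cells arrested at G1/S by double thymidine block, proteins quantified by TMT10plex mass spectrometry in mild NP-40 versus SDS extracts, three biological replicates.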
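For thermal stability score vs G1/S (z-score of summed log2 fold changes over temperatures) in this document: synchronized HeLa Kyoto cells, proteins quantified by TMT10plex mass spectrometry, three biological replicates, mitosis taken 0.5 h after nocodazole release, G1/S directly after double thymidine block.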

Sequence: MAPPSVFAEVPQAQPVLVFKLTADFREDPDPRKVNLGVGAYRTDDCHPWVLPVVKKVEQKIANDNSLNHEYLPILGLAEFRSCASRLALGDDSPALKEKRVGGVQSLGGTGALRIGADFLARWYNGTNNKNTPVYVSSPTWENHNAVFSAAGFKDIRSYRYWDAEKRGLDLQGFLNDLENAPEFSIVVLHACAHNPTGIDPTPEQWKQIASVMKHRFLFPFFDSAYQGFASGNLERDAWAIRYFVSEGFEFFCAQSFSKNFGLYNERVGNLTVVGKEPESILQVLSQMEKIVRITWSNPPAQGARIVASTLSNPELFEEWTGNVKTMADRILTMRSELRARLEALKTPGTWNHITDQIGMFSFTGLNPKQVEYLVNEKHIYLLPSGRINVSGLTTKNLDYVATSIHEAVTKIQ [GOT1]
- thermal stability score [1, 5]: -1.19
- thermal stability score ([1]; cell cycle stage: mitosis): -1.58
- solubility in G1/S (log2) [2]: 0.34
- solubility change mitosis (log2) [3]: -0.116
- melting temperature ([4]; cell cycle stage: G1/S): 58.1 °C
- melting temperature ([4]; cell cycle stage: mitosis): 64.1 °C

Sequence: MAPQNLSTFCLLLLYLIGAVIAGRDFYKILGVPRSASIKDIKKAYRKLALQLHPDRNPDDPQAQEKFQDLGAAYEVLSDSEKRKQYDTYGEEGLKDGHQSSHGDIFSHFFGDFGFMFGGTPRQQDRNIPRGSDIIVDLEVTLEEVYAGNFVEVVRNKPVARQAPGKRKCNCRQEMRTTQLGPGRFQMTQEVVCDECPNVKLVNEERTLEVEIEPGVRDGMEYPFIGEGEPHVDGEPGDLRFRIKVVKHPIFERRGDDLYTNVTISLVESLVGFEMDITHLDGHKVHISRDKITRPGAKLWKKGEGLPNFDNNNIKGSLIITFDVDFPKEQLTEEAREGIKQLLKQGSVQKVYNGLQGY [DNAJB11]
- thermal stability score [1, 5]: 3
- thermal stability score ([1]; cell cycle stage: mitosis): 0.842
- solubility in G1/S (log2) [2]: 0.337
- solubility change mitosis (log2) [3]: -0.0195
- melting temperature ([4]; cell cycle stage: G1/S): 54.7 °C
- melting temperature ([4]; cell cycle stage: mitosis): 55 °C

Sequence: MAPRLQLEKAAWRWAETVRPEEVSQEHIETAYRIWLEPCIRGVCRRNCKGNPNCLVGIGEHIWLGEIDENSFHNIDDPNCERRKKNSFVGLTNLGATCYVNTFLQVWFLNLELRQALYLCPSTCSDYMLGDGIQEEKDYEPQTICEHLQYLFALLQNSNRRYIDPSGFVKALGLDTGQQQDAQEFSKLFMSLLEDTLSKQKNPDVRNIVQQQFCGEYAYVTVCNQCGRESKLLSKFYELELNIQGHKQLTDCISEFLKEEKLEGDNRYFCENCQSKQNATRKIRLLSLPCTLNLQLMRFVFDRQTGHKKKLNTYIGFSEILDMEPYVEHKGGSYVYELSAVLIHRGVSAYSGHYIAHVKDPQSGEWYKFNDEDIEKMEGKKLQLGIEEDLAEPSKSQTRKPKCGKGTHCSRNAYMLVYRLQTQEKPNTTVQVPAFLQELVDRDNSKFEEWCIEMAEMRKQSVDKGKAKHEEVKELYQRLPAGAEPYEFVSLEWLQKWLDESTPTKPIDNHACLCSHDKLHPDKISIMKRISEYAADIFYSRYGGGPRLTVKALCKECVVERCRILRLKNQLNEDYKTVNNLLKAAVKGSDGFWVGKSSLRSWRQLALEQLDEQDGDAEQSNGKMNGSTLNKDESKEERKEEEELNFNEDILCPHGELCISENERRLVSKEAWSKLQQYFPKAPEFPSYKECCSQCKILEREGEENEALHKMIANEQKTSLPNLFQDKNRPCLSNWPEDTDVLYIVSQFFVEEWRKFVRKPTRCSPVSSVGNSALLCPHGGLMFTFASMTKEDSKLIALIWPSEWQMIQKLFVVDHVIKITRIEVGDVNPSETQYISEPKLCPECREGLLCQQQRDLREYTQATIYVHKVVDNKKVMKDSAPELNVSSSETEEDKEEAKPDGEKDPDFNQSNGGTKRQKISHQNYIAYQKQVIRRSMRHRKVRGEKALLVSANQTLKELKIQIMHAFSVAPFDQNLSIDGKILSDDCATLGTLGVIPESVILLKADEPIADYAAMDDVMQVCMPEEGFKGTGLLGH [USP48]
- thermal stability score [1, 5]: 1.52
- thermal stability score ([1]; cell cycle stage: mitosis): 2.6
- solubility in G1/S (log2) [2]: -0.074
- solubility change mitosis (log2) [3]: -0.183
- melting temperature ([4]; cell cycle stage: G1/S): 47.4 °C
- melting temperature ([4]; cell cycle stage: mitosis): 49.1 °C

Sequence: MAPSTPLLTVRGSEGLYMVNGPPHFTESTVFPRESGKNCKVCIFSKDGTLFAWGNGEKVNIISVTNKGLLHSFDLLKAVCLEFSPKNTVLATWQPYTTSKDGTAGIPNLQLYDVKTGTCLKSFIQKKMQNWCPSWSEDETLCARNVNNEVHFFENNNFNTIANKLHLQKINDFVLSPGPQPYKVAVYVPGSKGAPSFVRLYQYPNFAGPHAALANKSFFKADKVTMLWNKKATAVLVIASTDVDKTGASYYGEQTLHYIATNGESAVVQLPKNGPIYDVVWNSSSTEFCAVYGFMPAKATIFNLKCDPVFDFGTGPRNAAYYSPHGHILVLAGFGNLRGQMEVWDVKNYKLISKPVASDSTYFAWCPDGEHILTATCAPRLRVNNGYKIWHYTGSILHKYDVPSNAELWQVSWQPFLDGIFPAKTITYQAVPSEVPNEEPKVATAYRPPALRNKPITNSKLHEEEPPQNMKPQSGNDKPLSKTALKNQRKHEAKKAAKQEARSDKSPDLAPTPAPQSTPRNTVSQSISGDPEIDKKIKNLKKKLKAIEQLKEQAATGKQLEKNQLEKIQKETALLQELEDLELGI [EIF2A]
- thermal stability score [1, 5]: -0.606
- thermal stability score ([1]; cell cycle stage: mitosis): -1.22
- solubility in G1/S (log2) [2]: 0.224
- solubility change mitosis (log2) [3]: -0.121
- melting temperature ([4]; cell cycle stage: G1/S): 52.1 °C
- melting temperature ([4]; cell cycle stage: mitosis): 51.7 °C

Sequence: MAPVEHVVADAGAFLRHAALQDIGKNIYTIREVVTEIRDKATRRRLAVLPYELRFKEPLPEYVRLVTEFSKKTGDYPSLSATDIQVLALTYQLEAEFVGVSHLKQEPQKVKVSSSIQHPETPLHISGFHLPYKPKPPQETEKGHSACEPENLEFSSFMFWRNPLPNIDHELQELLIDRGEDVPSEEEEEEENGFEDRKDDSDDDGGGWITPSNIKQIQQELEQCDVPEDVRVGCLTTDFAMQNVLLQMGLHVLAVNGMLIREARSYILRCHGCFKTTSDMSRVFCSHCGNKTLKKVSVTVSDDGTLHMHFSRNPKVLNPRGLRYSLPTPKGGKYAINPHLTEDQRFPQLRLSQKARQKTNVFAPDYIAGVSPFVENDISSRSATLQVRDSTLGAGRRRLNPNASRKKFVKKR [NOB1]
- thermal stability score [1, 5]: 0.938
- thermal stability score ([1]; cell cycle stage: mitosis): 0.387
- solubility in G1/S (log2) [2]: -0.457
- solubility change mitosis (log2) [3]: 0.197
- melting temperature ([4]; cell cycle stage: G1/S): 50.3 °C
- melting temperature ([4]; cell cycle stage: mitosis): 49.8 °C

Sequence: MAPVHGDDSLSDSGSFVSSRARREKKSKKGRQEALERLKKAKAGEKYKYEVEDFTGVYEEVDEEQYSKLVQARQDDDWIVDDDGIGYVEDGREIFDDDLEDDALDADEKGKDGKARNKDKRNVKKLAVTKPNNIKSMFIACAGKKTADKAVDLSKDGLLGDILQDLNTETPQITPPPVMILKKKRSIGASPNPFSVHTATAVPSGKIASPVSRKEPPLTPVPLKRAEFAGDDVQVESTEEEQESGAMEFEDGDFDEPMEVEEVDLEPMAAKAWDKESEPAEEVKQEADSGKGTVSYLGSFLPDVSCWDIDQEGDSSFSVQEVQVDSSHLPLVKGADEEQVFHFYWLDAYEDQYNQPGVVFLFGKVWIESAETHVSCCVMVKNIERTLYFLPREMKIDLNTGKETGTPISMKDVYEEFDEKIATKYKIMKFKSKPVEKNYAFEIPDVPEKSEYLEVKYSAEMPQLPQDLKGETFSHVFGTNTSSLELFLMNRKIKGPCWLEVKSPQLLNQPVSWCKVEAMALKPDLVNVIKDVSPPPLVVMAFSMKTMQNAKNHQNEIIAMAALVHHSFALDKAAPKPPFQSHFCVVSKPKDCIFPYAFKEVIEKKNVKVEVAATERTLLGFFLAKVHKIDPDIIVGHNIYGFELEVLLQRINVCKAPHWSKIGRLKRSNMPKLGGRSGFGERNATCGRMICDVEISAKELIRCKSYHLSELVQQILKTERVVIPMENIQNMYSESSQLLYLLEHTWKDAKFILQIMCELNVLPLALQITNIAGNIMSRTLMGGRSERNEFLLLHAFYENNYIVPDKQIFRKPQQKLGDEDEEIDGDTNKYKKGRKKAAYAGGLVLDPKVGFYDKFILLLDFNSLYPSIIQEFNICFTTVQRVASEAQKVTEDGEQEQIPELPDPSLEMGILPREIRKLVERRKQVKQLMKQQDLNPDLILQYDIRQKALKLTANSMYGCLGFSYSRFYAKPLAALVTYKGREILMHTKEMVQKMNLEVIYGDTDSIMINTNSTNLEEVFKLGNKVKSEVNKLYKLLEIDIDGVFKSLLLLKKKKYAALVVEPTSDGNYVTKQELKGLDIVRRDWCDLAKDTGNFVIGQILSDQSRDTIVENIQKRLIEIGENVLNGSVPVSQFEINKALTKDPQDYPDKKSLPHVHVALWINSQGGRKVKAGDTVSYVICQDGSNLTASQRAYAPEQLQKQDNLTIDTQYYLAQQIHPVVARICEPIDGIDAVLIATWLGLDPTQFRVHHYHKDEENDALLGGPAQLTDEEKYRDCERFKCPCPTCGTENIYDNVFDGSGTDMEPSLYRCSNIDCKASPLTFTVQLSNKLIMDIRRFIKKYYDGWLICEEPTCRNRTRHLPLQFSRTGPLCPACMKATLQPEYSDKSLYTQLCFYRYIFDAECALEKLTTDHEKDKLKKQFFTPKVLQDYRKLKNTAEQFLSRSGYSEVNLSKLFAGCAVKS [POLA1]
- thermal stability score [1, 5]: 1.03
- thermal stability score ([1]; cell cycle stage: mitosis): 3.37
- solubility in G1/S (log2) [2]: -0.19
- solubility change mitosis (log2) [3]: -0.107
- melting temperature ([4]; cell cycle stage: G1/S): 49 °C
- melting temperature ([4]; cell cycle stage: mitosis): 50.1 °C

Sequence: MAPWGKRLAGVRGVLLDISGVLYDSGAGGGTAIAGSVEAVARLKRSRLKVRFCTNESQKSRAELVGQLQRLGFDISEQEVTAPAPAACQILKEQGLRPYLLIHDGVRSEFDQIDTSNPNCVVIADAGESFSYQNMNNAFQVLMELEKPVLISLGKGRYYKETSGLMLDVGPYMKALEYACGIKAEVVGKPSPEFFKSALQAIGVEAHQAVMIGDDIVGDVGGAQRCGMRALQVRTGKFRPSDEHHPEVKADGYVDNLAEAVDLLLQHADK [LHPP]
- thermal stability score [1, 5]: -1.67
- thermal stability score ([1]; cell cycle stage: mitosis): -2.15
- solubility in G1/S (log2) [2]: 0.392
- solubility change mitosis (log2) [3]: 0.0085
- melting temperature ([4]; cell cycle stage: G1/S): 56.5 °C
- melting temperature ([4]; cell cycle stage: mitosis): 55.5 °C

Sequence: MAQFVRNLVEKTPALVNAAVTYSKPRLATFWYYAKVELVPPTPAEIPRAIQSLKKIVNSAQTGSFKQLTVKEAVLNGLVATEVLMWFYVGEIIGKRGIIGYDV [ATP5L]
- thermal stability score [1, 5]: -1.18
- thermal stability score ([1]; cell cycle stage: mitosis): -2.02
- solubility in G1/S (log2) [2]: -0.573
- solubility change mitosis (log2) [3]: 0.0203
- melting temperature ([4]; cell cycle stage: G1/S): 55 °C
- melting temperature ([4]; cell cycle stage: mitosis): 52.8 °C

Sequence: MAQKKYLQAKLTQFLREDRIQLWKPPYTDENKKVGLALKDLAKQYSDRLECCENEVEKVIEEIRCKAIERGTGNDNYRTTGIATIEVFLPPRLKKDRKNLLETRLHITGRELRSKIAETFGLQENYIKIVINKKQLQLGKTLEEQGVAHNVKAMVLELKQSEEDARKNFQLEEEEQNEAKLKEKQIQRTKRGLEILAKRAAETVVDPEMTPYLDIANQTGRSIRIPPSERKALMLAMGYHEKGRAFLKRKEYGIALPCLLDADKYFCECCRELLDTVDNYAVLQLDIVWCYFRLEQLECLDDAEKKLNLAQKCFKNCYGENHQRLVHIKGNCGKEKVLFLRLYLLQGIRNYHSGNDVEAYEYLNKARQLFKELYIDPSKVDNLLQLGFTAQEARLGLRACDGNVDHAATHITNRREELAQIRKEEKEKKRRRLENIRFLKGMGYSTHAAQQVLHAASGNLDEALKILLSNPQMWWLNDSNPETDNRQESPSQENIDRLVYMGFDALVAEAALRVFRGNVQLAAQTLAHNGGSLPPELPLSPEDSLSPPATSPSDSAGTSSASTDEDMETEAVNEILEDIPEHEEDYLDSTLEDEEIIIAEYLSYVENRKSATKKN [NUB1]
- thermal stability score [1, 5]: 1.06
- thermal stability score ([1]; cell cycle stage: mitosis): 1.85
- solubility in G1/S (log2) [2]: -0.169
- solubility change mitosis (log2) [3]: -0.203
- melting temperature ([4]; cell cycle stage: G1/S): 47.9 °C
- melting temperature ([4]; cell cycle stage: mitosis): 50.3 °C
